These results are taken from paper PMC10681739, “High-throughput data and modeling reveal insights into the mechanisms of cooperative DNA-binding by transcription factor proteins”.

In this data set the target is RUNX1 (Homo sapiens, UniProt Q01196). The data set can be described thus: gcPBM; 2 nM RUNX1. Conditions: tags: N-terminal GST (pDEST15), kept (PMC6008103); label: surface-attached array probe.
RUNX1, sequence (Q01196 whole entry): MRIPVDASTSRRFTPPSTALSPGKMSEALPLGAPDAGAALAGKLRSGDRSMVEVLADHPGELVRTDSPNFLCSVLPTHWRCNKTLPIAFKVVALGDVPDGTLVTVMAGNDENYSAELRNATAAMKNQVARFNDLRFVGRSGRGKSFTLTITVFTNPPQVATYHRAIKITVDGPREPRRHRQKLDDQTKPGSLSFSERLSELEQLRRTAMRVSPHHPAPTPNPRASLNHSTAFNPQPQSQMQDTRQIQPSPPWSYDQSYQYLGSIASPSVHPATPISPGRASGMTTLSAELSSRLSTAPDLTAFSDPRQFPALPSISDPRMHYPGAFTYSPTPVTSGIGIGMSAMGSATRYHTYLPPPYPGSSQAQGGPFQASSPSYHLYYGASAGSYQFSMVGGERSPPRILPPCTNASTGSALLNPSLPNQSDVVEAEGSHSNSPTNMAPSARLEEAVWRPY

B1: Table S3 C row 161 (dsDNA)
DNA 1: CTATCCCAGGCCTCGCTTCCGGTGACATCATGTCTC
DNA 2: GAGACATGATGTCACCGGAAGCGAGGCCTGGGATAG
Consider B1, for which the binding signal is 749 PBM fluorescence, median of replicate spots.

B2: Table S3 C row 150 (dsDNA)
DNA 1: TCTGAACTCTGACAACTTCCTGTCGCTCTGAGTGTG
DNA 2: CACACTCAGAGCGACAGGAAGTTGTCAGAGTTCAGA
B2: the binding signal was 757 PBM fluorescence, median of replicate spots.

B3: Table S3 C row 170 (dsDNA)
DNA 1: ACCGGCGCGCACACGCTTCCGTGCTACGAGGCACTT
DNA 2: AAGTGCCTCGTAGCACGGAAGCGTGTGCGCGCCGGT
As to B3, the binding signal was 726 PBM fluorescence, median of replicate spots.

B4: Table S3 C row 89 (dsDNA)
DNA 1: AGCACAGCTTCGGGCCGGAATCACGATCCACCAGAC
DNA 2: GTCTGGTGGATCGTGATTCCGGCCCGAAGCTGTGCT
Turning to B4, the binding signal was 755 PBM fluorescence, median of replicate spots.

B5: Table S3 C row 9 (dsDNA)
DNA 1: CGTGACGCAGGGAAAGTTCCGGCTTCGGCCTCCGCC
DNA 2: GGCGGAGGCCGAAGCCGGAACTTTCCCTGCGTCACG
With B5, the binding signal is 736 PBM fluorescence, median of replicate spots.

B6: Table S3 C row 173 (dsDNA)
DNA 1: CGCTATCGGGGCAGCAGGAAGTCGCCATCTTGAATC
DNA 2: GATTCAAGATGGCGACTTCCTGCTGCCCCGATAGCG
In the case of B6, the binding signal is 725 PBM fluorescence, median of replicate spots.

B7: Table S3 C row 53 (dsDNA)
DNA 1: GCTGGGACGCCAGACCTTCCGGGTTGCCCGGCCCCG
DNA 2: CGGGGCCGGGCAACCCGGAAGGTCTGGCGTCCCAGC
As to B7, the binding signal is 748 PBM fluorescence, median of replicate spots.

B8: Table S3 C row 122 (dsDNA)
DNA 1: ACCCTGAAGCCTCGCCGGAACTCGCGTCTGGGGCCA
DNA 2: TGGCCCCAGACGCGAGTTCCGGCGAGGCTTCAGGGT
Consider B8, for which the binding signal was 728 PBM fluorescence, median of replicate spots.

B9: Table S3 C row 144 (dsDNA)
DNA 1: GTTTAAGCTCAGCGCCTTCCTGGTTCTAGCGCCAGG
DNA 2: CCTGGCGCTAGAACCAGGAAGGCGCTGAGCTTAAAC
As for B9, the binding signal is 729 PBM fluorescence, median of replicate spots.

B10: Table S3 C row 176 (dsDNA)
DNA 1: GCCGCCATGGGGCGCTATCCGGCCCCAGCCGGGACC
DNA 2: GGTCCCGGCTGGGGCCGGATAGCGCCCCATGGCGGC
For B10, the binding signal is 729 PBM fluorescence, median of replicate spots.

B11: Table S3 C row 164 (dsDNA)
DNA 1: GGGCTGGGTGGAGACAGGAAGCTTCAGAGCCACTCC
DNA 2: GGAGTGGCTCTGAAGCTTCCTGTCTCCACCCAGCCC
Consider B11, for which the binding signal was 735 PBM fluorescence, median of replicate spots.

B12: Table S3 C row 72 (dsDNA)
DNA 1: CCCCGTCCACGGCCCCGGAAGCTGACGTCGCCGAAG
DNA 2: CTTCGGCGACGTCAGCTTCCGGGGCCGTGGACGGGG
Turning to B12, the binding signal was 733 PBM fluorescence, median of replicate spots.

B13: Table S3 C row 87 (dsDNA)
DNA 1: AGAGGAGGGGCCCGGCGGAAACTGCCGAGGTCTCCC
DNA 2: GGGAGACCTCGGCAGTTTCCGCCGGGCCCCTCCTCT
For B13, the binding signal was 733 PBM fluorescence, median of replicate spots.

B14: Table S3 C row 54 (dsDNA)
DNA 1: CAGACCCCGTGGGGCAGGAAGCTGCTGGGGTAGGCC
DNA 2: GGCCTACCCCAGCAGCTTCCTGCCCCACGGGGTCTG
Regarding B14, the binding signal is 758 PBM fluorescence, median of replicate spots.

B15: Table S3 C row 192 (dsDNA)
DNA 1: CCGCGCAAGCCCCGACATCCGGTTGGCCGGCGTGGG
DNA 2: CCCACGCCGGCCAACCGGATGTCGGGGCTTGCGCGG
As to B15, the binding signal was 751 PBM fluorescence, median of replicate spots.

B16: Table S3 C row 154 (dsDNA)
DNA 1: CCGGCTCATCTGGTATTTCCTGAGCACCTGCGACGT
DNA 2: ACGTCGCAGGTGCTCAGGAAATACCAGATGAGCCGG
As to B16, the binding signal is 757 PBM fluorescence, median of replicate spots.

B17: Table S3 C row 23 (dsDNA)
DNA 1: CCCAGCCGGCCTGGACATCCGCCCCGCGCGCGGCGT
DNA 2: ACGCCGCGCGCGGGGCGGATGTCCAGGCCGGCTGGG
As to B17, the binding signal is 759 PBM fluorescence, median of replicate spots.

B18: Table S3 C row 82 (dsDNA)
DNA 1: TGATGGGGATCGGTCCGGATGTACTTCAACATCTTT
DNA 2: AAAGATGTTGAAGTACATCCGGACCGATCCCCATCA
As to B18, the binding signal was 747 PBM fluorescence, median of replicate spots.

B19: Table S3 C row 200 (dsDNA)
DNA 1: GCCCCTCACAGCCTGCTTCCGGGAGCCGGGCAGGCC
DNA 2: GGCCTGCCCGGCTCCCGGAAGCAGGCTGTGAGGGGC
For B19, the binding signal was 726 PBM fluorescence, median of replicate spots.

B20: Table S3 C row 75 (dsDNA)
DNA 1: GGAGCTCACCTTCCAGTTCCGGGAGGCAGGCCGGCC
DNA 2: GGCCGGCCTGCCTCCCGGAACTGGAAGGTGAGCTCC
Consider B20, for which the binding signal is 740 PBM fluorescence, median of replicate spots.

B21: Table S3 C row 180 (dsDNA)
DNA 1: CTGTGCAGCGTCCTCCTTCCGGGTGCAGGCGGGCCT
DNA 2: AGGCCCGCCTGCACCCGGAAGGAGGACGCTGCACAG
With B21, the binding signal was 722 PBM fluorescence, median of replicate spots.

B22: Table S3 C row 81 (dsDNA)
DNA 1: GGCCCATTGTCCGCGCTTCCGTTCAGGCTCCGCCTC
DNA 2: GAGGCGGAGCCTGAACGGAAGCGCGGACAATGGGCC
On to B22, for which the binding signal is 725 PBM fluorescence, median of replicate spots.

B23: Table S3 C row 57 (dsDNA)
DNA 1: TTCATTGTTAGGGAACATCCGGGCCTGTCCCCTCCC
DNA 2: GGGAGGGGACAGGCCCGGATGTTCCCTAACAATGAA
Consider B23, for which the binding signal is 752 PBM fluorescence, median of replicate spots.

B24: Table S3 C row 36 (dsDNA)
DNA 1: GGACGGCCTCTGAAGCTTCCGCGCCGACTTCTCCGA
DNA 2: TCGGAGAAGTCGGCGCGGAAGCTTCAGAGGCCGTCC
Consider B24, for which the binding signal is 741 PBM fluorescence, median of replicate spots.

B25: Table S3 C row 98 (dsDNA)
DNA 1: TCGGCGGGGCTGTACCGGAAGTTGCCTCTACTTCTG
DNA 2: CAGAAGTAGAGGCAACTTCCGGTACAGCCCCGCCGA
As to B25, the binding signal was 759 PBM fluorescence, median of replicate spots.

B26: Table S3 C row 174 (dsDNA)
DNA 1: TTGCTCTGCGCATGGCGGAAAGGGTGCGCCGCCTGT
DNA 2: ACAGGCGGCGCACCCTTTCCGCCATGCGCAGAGCAA
Turning to B26, the binding signal was 735 PBM fluorescence, median of replicate spots.

B27: Table S3 C row 49 (dsDNA)
DNA 1: TGGGACTGACTGAGTCTTCCGTGTGTCGCCGCCGTT
DNA 2: AACGGCGGCGACACACGGAAGACTCAGTCAGTCCCA
Regarding B27, the binding signal was 756 PBM fluorescence, median of replicate spots.

B28: Table S3 C row 153 (dsDNA)
DNA 1: CCGCCTTCAGGGCGGCGGAAGTCGCTGGCTGCTCTT
DNA 2: AAGAGCAGCCAGCGACTTCCGCCGCCCTGAAGGCGG
As for B28, the binding signal is 759 PBM fluorescence, median of replicate spots.

B29: Table S3 C row 50 (dsDNA)
DNA 1: GCGTGACAGAATGTGCTTCCGCTTGCGCCTCTGAGC
DNA 2: GCTCAGAGGCGCAAGCGGAAGCACATTCTGTCACGC
As for B29, the binding signal is 755 PBM fluorescence, median of replicate spots.

B30: Table S3 C row 127 (dsDNA)
DNA 1: CTCCGAACTTAGGACAGGAAGAAACAGGCACATTTC
DNA 2: GAAATGTGCCTGTTTCTTCCTGTCCTAAGTTCGGAG
For the molecule B30, the binding signal was 751 PBM fluorescence, median of replicate spots.

B31: Table S3 C row 22 (dsDNA)
DNA 1: CCGGATTGCCTTCACAGGAAGGGAAAGTCACTCCGG
DNA 2: CCGGAGTGACTTTCCCTTCCTGTGAAGGCAATCCGG
For B31, the binding signal was 737 PBM fluorescence, median of replicate spots.

B32: Table S3 C row 178 (dsDNA)
DNA 1: TGGCTGCTACGTCGTCTTCCTGGGCGAAAGTGCCTG
DNA 2: CAGGCACTTTCGCCCAGGAAGACGACGTAGCAGCCA
Regarding B32, the binding signal is 726 PBM fluorescence, median of replicate spots.

B33: Table S3 C row 69 (dsDNA)
DNA 1: TCCCCGAGCGTGCAGCTTCCGGTGAGGGCAGCCCCA
DNA 2: TGGGGCTGCCCTCACCGGAAGCTGCACGCTCGGGGA
Regarding B33, the binding signal is 735 PBM fluorescence, median of replicate spots.

B34: Table S3 C row 52 (dsDNA)
DNA 1: TTTCGCCGACCCCGCCGGAAGACCAGGCCGGCGCGG
DNA 2: CCGCGCCGGCCTGGTCTTCCGGCGGGGTCGGCGAAA
With B34, the binding signal is 732 PBM fluorescence, median of replicate spots.

B35: Table S3 C row 179 (dsDNA)
DNA 1: CACAAGCGAAACATTCGGAAGCAATTTACTTGCAGC
DNA 2: GCTGCAAGTAAATTGCTTCCGAATGTTTCGCTTGTG
Consider B35, for which the binding signal is 751 PBM fluorescence, median of replicate spots.

B36: Table S3 C row 26 (dsDNA)
DNA 1: GACACTGGAGGGAGCCGGAAGTACCTCGGAGTTTTA
DNA 2: TAAAACTCCGAGGTACTTCCGGCTCCCTCCAGTGTC
On to B36, for which the binding signal was 723 PBM fluorescence, median of replicate spots.

B37: Table S3 C row 172 (dsDNA)
DNA 1: TGGCTGAGACTGAGACGGAAGGATCCTTGCGCCCAG
DNA 2: CTGGGCGCAAGGATCCTTCCGTCTCAGTCTCAGCCA
B37: the binding signal was 723 PBM fluorescence, median of replicate spots.

B38: Table S3 C row 138 (dsDNA)
DNA 1: GGGGCCTGTTGTAGTTTTCCTGCATTCAAAGTACCC
DNA 2: GGGTACTTTGAATGCAGGAAAACTACAACAGGCCCC
Regarding B38, the binding signal is 732 PBM fluorescence, median of replicate spots.

B39: Table S3 C row 62 (dsDNA)
DNA 1: GGGAGAAGCGGGAGGCGGAACGCCCGAGGGCGCCCT
DNA 2: AGGGCGCCCTCGGGCGTTCCGCCTCCCGCTTCTCCC
In the case of B39, the binding signal was 722 PBM fluorescence, median of replicate spots.

B40: Table S3 C row 110 (dsDNA)
DNA 1: AGCTTATCATCGTCACGGAAGCCCCGCCAGGTGGCG
DNA 2: CGCCACCTGGCGGGGCTTCCGTGACGATGATAAGCT
For the molecule B40, the binding signal is 759 PBM fluorescence, median of replicate spots.

B41: Table S3 C row 107 (dsDNA)
DNA 1: CTCGAGCCCGCTCGGCTTCCGTAGCCCCGCCCCATC
DNA 2: GATGGGGCGGGGCTACGGAAGCCGAGCGGGCTCGAG
For the molecule B41, the binding signal is 743 PBM fluorescence, median of replicate spots.

B42: Table S3 C row 166 (dsDNA)
DNA 1: ACCCCGGGTCGGAGTGTTCCGGCCCGGCCAGCCCCG
DNA 2: CGGGGCTGGCCGGGCCGGAACACTCCGACCCGGGGT
With B42, the binding signal was 724 PBM fluorescence, median of replicate spots.
